Experimental data taken from patent US20240369485A1, “FLUORESCENT SENSOR FOR MONITORING CALCIUM DYNAMICS” (priority 2021, published 2024).

Columns and labels:
[1] = In vitro kinetics by stopped flow spectrofluorometer; assay type: binding
Protocol: In vitro kinetics by stopped flow spectrofluorometer. The kinetics were determined by a Hi-Tech SF-61 stopped-flow spectrofluorometer equipped with the mercury-Xe lamp (10 mm path length, dead time of 2.2 ms) at 20° C. For R-CatchER and its variant or R-CEPIA1er, excitation was at 569 nm and a long-pass 590 nm filter was used. For G-CEPIA1er, a 530 nm long-pass filter was set with excitation at 498 nm, while for MCD1, excitation at 587 nm and a long-pass 600 nm filter were applied. For association kinetics, R-CatchER, R-CatchER variant, MCD1, R-CEPIA1er, and G-CEPIA1er were mixed with the same buffer containing an increasing concentration of Ca^2+. For disassociation kinetics, R-CatchER, R-CatchER variant, MCD1, R-CEPIA1er, and G-CEPIA1er in buffers with concentration of Ca^2+ at Kd, were mixed with 5 mM EGTA or buffer. The raw data were fitted using either single exponential for R-CatchER, R-CatchER variant, and MCD1, or double exponential equations for R-CEPIA1er and G-CEPIA1er.

[2] = system: primary hippocampal neurons; assay: Wide-field imaging in neuronal cultures; assay type: cell-based, mice; conditions: for decrease of fluorescence upon DHPG: 100 μM DHPG; for ER Ca^2+ transient ΔF/F: field stimulation 50 Hz for 1 s
Protocol: Wide-field imaging in neuronal cultures. Primary neuronal cultures were generated from embryonic day 18 or postnatal day 0-1 mice and plated onto poly-D-lysine (Sigma) coated coverslips as previously described. Neurons were maintained in neuronal feeding media (Neurobasal media, ThermoFisher Scientific) containing 1% GlutaMAX (ThermoFisher Scientific), 2% B-27 (ThermoFisher Scientific), 0.002 mg/mL Gentamicin (Sigma) with or without 10 μM 5 fluoro 2-deoxyuridine (Sigma-Aldrich) and fed every 3-4 days via half neuronal feeding media exchanges. Neurons were transfected with plasmid(s) through either lipofection or electroporation. For lipofection, at 11-12 days in vitro, cells were transfected using Lipofectamine 2000 Reagent (ThermoFisher Scientific) with a modified protocol. For electroporation, dissociated cells in suspension were electroporated in a cuvette using the 4D-Nucleofector system (Lonza) following the manufacturer's instructions prior to plating in FBS-containing Neurobasal media without B-27. Full media exchange was performed the following day with serum- and antibiotics-free Neurobasal media.
Neurons were imaged between 12-15 days in vitro, using an inverted (Olympus IX71) or an upright (Scientifica HyperScope) wide-field fluorescence microscope equipped with an epi-fluorescence turret (Olympus), a scientific CMOS camera (Hamamatsu ORCA-Flash4.0 LT), a mercury lamp (Olympus) or an LED light source (CoolLED pE-300ultra), and an oil- (Olympus Uapo/340 40×/1.35NA) or water-immersion objective (Nikon CFI75 LWD 16×W 0.8NA), respectively. R-CatchER or jGCaMP7s was viewed using a TRITC (Chroma 41002) or FITC (Chroma 41001) fluorescence filter cube, respectively. Images were obtained every 5 s or 33.3 ms using Micro-Manager (the Vale lab, UCSF) at room temperature.
The external solution contained 150 mM NaCl, 3 mM KCl, 2 mM MgCl2, 2 mM CaCl2), 10 mM HEPES, and 20 mM glucose at a pH of 7.35. mGluR agonists were applied in the bath. Field electrical stimulation was applied with a stimulus isolator (World Precision Instruments A360) via an imaging chamber with two platinum wires (Warner Instruments RC-21BRFS). Trains (2 ms to 2 s at 50 HZ) of pulses (10 mA for 2 ms) were controlled by pClamp 10 software and Digidata 1440A data acquisition system (Molecular Devices). Imaging data were processed and analyzed using in-house and NeuroMatic (Jason Rothman) macros in Igor Pro 8 (WaveMetrics).

HeLa cells [3] = assay: In situ Ca^2+ binding affinity in HeLa cells with stepwise Ca^2+ concentrations; assay type: cell-based
Protocol: (§1) Cell culture and transfection. C2C12, HEK293 and HeLa cells were cultured and maintained in Dulbecco's modified Eagle's medium (DMEM) supplemented with 10% fetal bovine serum (FBS) and high glucose (4.5 g/L) at 37° C. R-CatchER, G-CatchER2, G-CEPIA1er, R-CEPIA1er or R-CatchER with GFP-CaSR (wt and mutations) were transfected into cells using Lipofectamine 3000 (Life Technologies), following the manufacturer's instructions. Seed cells onto sterilized 22 mm×40 mm glass microscope slides in 6 cm dishes until about 70% confluency, the day of transfection. The next day, 2 μg of plasmid were mixed with transfection reagent in the reduced serum media Opti-MEM for 4-6 h at 37° C. The media was then replaced with 3 mL of fresh DMEM and incubated at 37° C. for 48 h.

ER Ca^2+ = assay: Quantitative basal/resting ER Ca^2+ measurement using R-CatchER; assay type: cell-based
HeLa cells [4] = assay type: cell-based
Protocol: as §1
HILO imaging of R-CatchER, G-CatchER2, R-CEPIA1er, and G-CEPIA1er. Samples were mounted in a perfusion chamber and imaged using a customized optical microscope based on a Nikon TiE inverted microscope equipped with a 100×TIRF objective (N.A. 1.49, Nikon) and a highly sensitive electron multiplying charge-coupled device (EMCCD) camera (Andor Ixon Ultra 888). A fiber-coupled 488 nm or 561 nm laser (LBX-488/LCX-561, Oxxius) was first collimated and then focused to the back focal plane of the TIRF objective using an achromatic optical lens of 200 mm focal length (AC254-200-A, Thorlabs). To achieve HILO imaging, the incident angle of the excitation laser was adjusted to be slightly smaller than the critical angles at the cell-coverslip interface through translational movement the optical axis of the incident light beam by a motorized stage (SGSP-20-20, Sigma Koki). An efficient excitation volume of few micrometers was obtained under HILO illumination. A quad-band filter set (TRF89901v2, Chroma) was used for filtering out the fluorescence background. Fluorescence images of samples were recorded at 1 Hz as the concentration of ER Ca^2+ was perturbed by perfusion of 3 μM Thapsigargin, 0.5 mM 4-cmc, 1 mM 4-cmc, 100 μM ATP, or 100 μM histamine.

B1: R-CatchER: red genetically encoded Ca^2+ indicator, mApple A145E/K198D/R216D, SEQ ID NO: 12 (protein)
chain: EENNMAIIKEFMRFKVHMEGSVNGHEFEIEGEGEGRPYEAFQTAKLKVTKGGPLPFAWDILSPQFMYGSKVYIKHPADIPDYFKLSFPEGFRWERVMNFEDGGIIHVNQDSSLQDGVFIYKVKLRGTNFPSDGPVMQKKTMGWEESEERMYPEDGALKSEIKKRLKLKDGGHYAAEVKTTYKAKKPVQLPGAYIVDIDLDIVSHNEDYTIVEQYEDAEGRHSTGGMDELYK
Q: For B1, which “kon” value ([1]; Ca^2+ association) is on record?
A: The value was over 7e+06 M⁻¹ s⁻¹.

Q: What about the “koff” value ([1]; Ca^2+ dissociation) of the same molecule?
A: The value was over 2000 s⁻¹.

Q: What about the “Ca^2+ association rate kon” value ([1]; stopped-flow, dead time 2.2 ms, 20° C.) of the same molecule?
A: The value was at least 7e+06 M⁻¹ s⁻¹.

Q: And the “decrease of fluorescence upon DHPG” value ([2]; primary, first value (dendrites by printed order))?
A: Its value is 0.13±0.02.

Q: What about the “decrease of fluorescence upon DHPG” value ([2]; primary, second value (branchpoints by printed order)) of the same molecule?
A: Its value is 0.08±0.01.

Q: What about the “decrease of fluorescence upon DHPG” value ([2]; secondary, first value (dendrites by printed order)) of the same molecule?
A: The value was 0.12±0.03.

Q: And the “decrease of fluorescence upon DHPG” value ([2]; secondary, second value (branchpoints by printed order))?
A: The value was 0.07±0.01.

Q: What about the “ER Ca^2+ transient ΔF/F” value ([2]; branchpoints) of the same molecule?
A: The value was 0.077±0.022.

Q: And the “ER Ca^2+ transient ΔF/F” value ([2]; primary dendrites)?
A: The value was 0.083±0.039.

Q: And the “ER Ca^2+ transient ΔF/F” value ([2]; secondary dendrites)?
A: The value was 0.036±0.017.

Q: What about the “ER Ca^2+ transient ΔF/F” value ([2]; soma) of the same molecule?
A: Its value is 0.173±0.048.

Q: What about the Kd (HeLa cells [3]) of the same molecule?
A: Its Kd is 310 ± 50 µM.

Q: And the “Basal [Ca^2+]ER” value (ER Ca^2+; 6-23 cells, 0.5 mM Ca^2+)?
A: Its value is 735.0 ± 66.7 µM.

Q: And the “Basal [Ca^2+]ER” value (ER Ca^2+; CaSR L173P, 1.8 mM Ca^2+)?
A: The value was 893.6 ± 67.6 µM.

Q: What about the “Basal [Ca^2+]ER” value (ER Ca^2+; CaSR P221L, 1.8 mM Ca^2+) of the same molecule?
A: The value was 477.7 ± 49.4 µM.

Q: What about the “Basal [Ca^2+]ER” value (ER Ca^2+; CaSR P221Q, 1.8 mM Ca^2+) of the same molecule?
A: Its value is 674.6 ± 50.2 µM.

Q: What about the “Basal [Ca^2+]ER” value (ER Ca^2+; CaSR S820F, 1.8 mM Ca^2+) of the same molecule?
A: Its value is 406.1 ± 41.4 µM.

Q: And the “Basal [Ca^2+]ER” value (ER Ca^2+; GFP-CaSR, 0.5 mM Ca^2+)?
A: Its value is 487.1 ± 48.2 µM.

Q: What about the “resting ER Ca^2+ concentration” value (ER Ca^2+; HEK293 cells) of the same molecule?
A: The value was 0.68 ± 0.22 mM.

Q: And the “resting ER Ca^2+ concentration” value (ER Ca^2+; HeLa cells)?
A: Its value is 0.59 ± 0.16 mM.

Q: And the “Basal [Ca^2+]ER” value (ER Ca^2+; TT cells, 0.5 mM Ca^2+)?
A: Its value is 539.0 ± 65.9 µM.

Q: And the “fluorescence decrease ΔF/F” value (HeLa cells [4]; 3 μM Thapsigargin (Tg), 0 mM Ca^2+)?
A: Its value is 0.69±0.07.

Q: And the “half decay time of the first peak of ER Ca^2+ oscillations” value (HeLa cells [4]; 100 μM histamine)?
A: The value was 1.8 ± 0.1 s.

Q: What about the “half rise time of the first peak of ER Ca^2+ oscillations” value (HeLa cells [4]; 100 μM histamine) of the same molecule?
A: The value was 7.3 ± 0.1 s.
